Measured values as given in patent US20240002531A1 (ONO PHARMACEUTICAL, published 2024).

What was measured:
Experiment in all cases: peptide ELISA, OD 655 nm
[1] = target: T1, HER2 peptide p603-622 (amino acids 603 to 622 of human HER2) (human)
T1 construct: Synthetic peptide; also called wild-type HER2 peptide
T1 peptide: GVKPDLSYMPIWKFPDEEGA

[2] = target: T2, G603A peptide (HER2 603-622 with G603A) (human)
T2 peptide: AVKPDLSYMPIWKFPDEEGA

[3] = target: T3, V604A peptide (HER2 603-622 with V604A) (human)
T3 peptide: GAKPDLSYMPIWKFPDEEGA

[4] = target: T4, K605A peptide (HER2 603-622 with K605A) (human)
T4 peptide: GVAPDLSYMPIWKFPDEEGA

[5] = target: T5, P606A peptide (HER2 603-622 with P606A) (human)
T5 peptide: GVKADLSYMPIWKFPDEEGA

[6] = target: T6, D607A peptide (HER2 603-622 with D607A) (human)
T6 peptide: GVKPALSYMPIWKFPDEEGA

[7] = target: T7, L608A peptide (HER2 603-622 with L608A) (human)
T7 peptide: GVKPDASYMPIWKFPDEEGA

[8] = target: T8, S609A peptide (HER2 603-622 with S609A) (human)
T8 peptide: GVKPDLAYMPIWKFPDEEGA

[9] = target: T9, Y610A peptide (HER2 603-622 with Y610A) (human)
T9 peptide: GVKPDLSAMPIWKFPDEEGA

[10] = target: T10, M611A peptide (HER2 603-622 with M611A) (human)
T10 peptide: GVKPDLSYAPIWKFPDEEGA

[11] = target: T11, P612A peptide (HER2 603-622 with P612A) (human)
T11 peptide: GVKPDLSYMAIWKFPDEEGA

[12] = target: T12, I613A peptide (HER2 603-622 with I613A) (human)
T12 construct: also called 1613A
T12 peptide: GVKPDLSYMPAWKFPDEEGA

[13] = target: T13, W614A peptide (HER2 603-622 with W614A) (human)
T13 peptide: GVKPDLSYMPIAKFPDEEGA

[14] = target: T14, K615A peptide (HER2 603-622 with K615A) (human)
T14 peptide: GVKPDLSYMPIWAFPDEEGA

[15] = target: T15, F616A peptide (HER2 603-622 with F616A) (human)
T15 peptide: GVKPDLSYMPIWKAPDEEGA

[16] = target: T16, P617A peptide (HER2 603-622 with P617A) (human)
T16 peptide: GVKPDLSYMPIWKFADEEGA

[17] = target: T17, D618A peptide (HER2 603-622 with D618A) (human)
T17 peptide: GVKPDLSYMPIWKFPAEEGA

[18] = target: T18, E619A peptide (HER2 603-622 with E619A) (human)
T18 peptide: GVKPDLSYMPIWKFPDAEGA

[19] = target: T19, E620A peptide (HER2 603-622 with E620A) (human)
T19 peptide: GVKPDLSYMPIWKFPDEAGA

[20] = target: T20, G621A peptide (HER2 603-622 with G621A) (human)
T20 peptide: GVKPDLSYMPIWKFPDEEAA

[21] = target: T21, HER2_604-622C peptide (NH2-VKPDLSYMPIWKFPDEEGAC-COOH) (human)
T21 construct: KLH was added for immunisation, the peptide itself was coated in the screening ELISA
T21 peptide: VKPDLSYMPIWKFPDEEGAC

Measured: binding result

B1: H2Mab-279 antibody (antibody, mouse IgG3, V domains shown)
VH: EVQLVESGGGLVQPGGSLKLSCAASGFSFSSYGIFWVRQTPDKRLELVATIKSNGGRTYYPDSVKGRFTISRDNAKNTLHLQMSSLKSEDTAMYYCAREGGDYWGQGTSVTVSS
VL: DIVMTQSHKIMSTSVGDRVSISCKASQDVGTAVAWYQQKPGQSPILLIYWASTRHTGVPDRFTGSGSGTDFTLTISNVQSEDLADYFCQQYKSNPLTFGAGTKLELKR
binds: all assays above
